# Assay results: patent US20210230294A1 (Incyte, published 2021)
# Changes are numbered by the printed parent chain.
# B1: CL25 (chimeric antibody, murine VH/VL with human IgG1/kappa constant regions) (antibody, V domains shown)
# VH: QVQLQQSGAELARPGASVKLSCRASGYTFTSYGLSWVKQRTGQGLEWIGEIYPGSGNTYYNEKFKGKATLTADKSSSTAYMELRSLTSEDSAVYFCARYDYLGSSYGFDYWGQGTTLTVSS
# VL: DIVMTQSHKFMSTSVGDRVSITCKASQDVSTAVAWYQQKPGQSPKLLIYSASYRYNGVPDRFTGSGSGTDFTFTISSVQAEDLAVYYCQQHYNTPYTFGGGTKLEIKR
# notes: also called Chimeric antibody CL25
# Assays:
# [1] = target: T1, recombinant human CD73 (SEQ ID NO:70) (human, UniProt P21589 27-549); test: SPR (Biacore 8K), antibody captured on anti-human Fc, CD73 as analyte, open conformation
# T1 construct: Soluble recombinant protein in normal SPR running buffer (open conformation), the soluble enzyme assay and HDX-MS; SPR stock bought from BPS Bioscience; also called rhuCD73; CD73 in the open conformation
# T1 sequence: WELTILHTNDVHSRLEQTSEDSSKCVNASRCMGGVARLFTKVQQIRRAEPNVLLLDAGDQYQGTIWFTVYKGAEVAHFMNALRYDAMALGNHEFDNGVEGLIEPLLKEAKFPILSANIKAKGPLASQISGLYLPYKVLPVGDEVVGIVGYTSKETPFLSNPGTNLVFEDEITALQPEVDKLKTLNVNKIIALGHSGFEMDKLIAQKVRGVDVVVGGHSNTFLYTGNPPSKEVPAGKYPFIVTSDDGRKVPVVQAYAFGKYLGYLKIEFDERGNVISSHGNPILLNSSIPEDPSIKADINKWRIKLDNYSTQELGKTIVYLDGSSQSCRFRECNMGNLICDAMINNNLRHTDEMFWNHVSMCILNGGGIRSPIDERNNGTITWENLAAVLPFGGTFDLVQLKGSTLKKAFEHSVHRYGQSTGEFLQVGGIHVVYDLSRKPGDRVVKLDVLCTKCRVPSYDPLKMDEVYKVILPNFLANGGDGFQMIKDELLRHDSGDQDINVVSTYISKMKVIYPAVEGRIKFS
# Method: (§1) The SPR running buffer (10 mM HEPES, 150 mM NaCl, 3 mM EDTA and 0.05% v/v Surfactant P20, pH 7.4) was prepared from 10×HBS-EP Buffer (GE Healthcare). Anti-human Fc antibodies (GE Healthcare) were immobilized via amine coupling on all sixteen flow cells of an S series sensor chip CM5 (GE Healthcare). The immobilization levels were ˜9000 RU for all flow cells. […] The non-cleavable ADP analogue APCP (adenosine-5′-(α,β-methylene) diphosphate) with the presence of Zn²⁺ can be used to shift the CD73 conformational equilibrium from open towards closed. Therefore, recombinant CD73 was incubated with SPR running buffer in the presence of 100 μM APCP and 10 μM ZnCl₂ (closed SPR running buffer) to study the binding of anti-CD73 antibody to the CD73 in the closed conformation. To achieve this, the ABA injection feature in Biacore 8K was used. For open conformation, the ABA injection sequence started with 60 seconds injection of running buffer. Then, CD73 3-fold serial dilution concentration series prepared from CD73 stock (BPS Bioscience) and running buffer were injected for 180 seconds immediately followed by running buffer for 240 seconds. For closed conformation, the normal SPR running buffer was replaced by closed SPR running buffer. Surface was regenerated with 30 seconds injection of 3 M MgCl₂.
# [2] = target: T2, mouse CD73 (SEQ ID NO:71) (mouse, UniProt Q61503 29-551); test: as above
# T2 construct: Open conformation (normal SPR running buffer); also called Murine; murine CD73
# T2 sequence: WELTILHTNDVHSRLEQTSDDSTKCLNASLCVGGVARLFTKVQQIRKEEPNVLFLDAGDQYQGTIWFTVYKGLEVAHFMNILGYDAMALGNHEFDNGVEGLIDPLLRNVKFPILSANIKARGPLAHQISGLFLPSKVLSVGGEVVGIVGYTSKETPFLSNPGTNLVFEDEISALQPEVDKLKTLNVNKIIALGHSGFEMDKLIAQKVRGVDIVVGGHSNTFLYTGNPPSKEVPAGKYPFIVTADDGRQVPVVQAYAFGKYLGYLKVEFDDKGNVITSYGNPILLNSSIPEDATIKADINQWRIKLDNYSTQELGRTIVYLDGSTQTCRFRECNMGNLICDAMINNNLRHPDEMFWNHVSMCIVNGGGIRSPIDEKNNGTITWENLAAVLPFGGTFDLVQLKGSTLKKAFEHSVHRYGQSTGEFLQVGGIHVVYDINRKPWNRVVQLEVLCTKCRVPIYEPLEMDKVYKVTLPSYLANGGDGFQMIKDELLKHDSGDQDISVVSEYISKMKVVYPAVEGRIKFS
# Method: as §1
# [3] = target: T3, cynomolgus CD73 (SEQ ID NO:72) (cynomolgus, UniProt P21589 27-549 (human entry)); test: as above
# T3 construct: Open conformation (normal SPR running buffer)
# T3 chain: T1 sequence with M199T, T350A, V466I
# Method: as §1
# [4] = target: T4, mouse CD73 in the closed conformation (mouse, UniProt Q61503 29-551); test: SPR (Biacore 8K), antibody captured on anti-human Fc, CD73 as analyte, buffer with APCP and ZnCl2 (closed conformation)
# T4 construct: Same protein as m3 in buffer with 100 uM APCP and 10 uM ZnCl2 (closed conformation); also called Murine, Closed
# T4 sequence: T2 sequence
# Method: as §1
# [5] = target: T5, cynomolgus CD73 in the closed conformation (cynomolgus, UniProt P21589 27-549 (human entry)); test: as above
# T5 construct: Same protein as m2 in buffer with 100 uM APCP and 10 uM ZnCl2 (closed conformation); also called Cynomolgus, Closed
# T5 chain: T1 sequence with M199T, T350A, V466I
# Method: as §1
# [6] = target: T6, recombinant human CD73 in the closed conformation (human, UniProt P21589 27-549); test: as above
# T6 construct: Kept apart from m1 because results differ between the two states; also called human CD73, Closed
# T6 sequence: T1 sequence
# Method: as §1
binder,measurement,setting,value
B1,Kd,[1],< 394 pM
same,koff,[1],0.000394 s⁻¹
same,kon,[1],> 1e+06 M⁻¹ s⁻¹
same,binding result,[2],no binding
same,Kd,[3],< 658 pM
same,koff,[3],0.000658 s⁻¹
same,kon,[3],> 1e+06 M⁻¹ s⁻¹
same,binding result,[4],no binding
same,Kd,[5],529 pM
same,koff,[5],0.000495 s⁻¹
same,kon,[5],936000 M⁻¹ s⁻¹
same,Kd,[6],381 pM
same,koff,[6],0.000344 s⁻¹
same,kon,[6],903000 M⁻¹ s⁻¹
